{"source": "patent US20150329606A1", "about": "(COMMISSARIAT A L ENERGIE ATOMIQUE ET AUX ENERGIES …, published 2015)", "binders": {"B1": {"name": "C1s-C1r-C1r-C1s tetramer (enzyme)", "chain 1": "SIPIPQKLFGEVTSPLFPKPYPNNFETTTVITVPTGYRVKLVFQQFDLEPSEGCFYDYVKISADKKSLGRFCGQLGSPLGNPPGKKEFMSQGNKMLLTFHTDFSNEENGTIMFYKGFLAYYQAVDLDECASRSKSGEEDPQPQCQHLCHNYVGGYFCSCRPGYELQEDTHSCQAECSSELYTEASGYISSLEYPRSYPPDLRCNYSIRVERGLTLHLKFLEPFDIDDHQQVHCPYDQLQIYANGKNIGEFCGKQRPPDLDTSSNAVDLLFFTDESGDSRGWKLRYTTEIIKCPQPKTLDEFTIIQNLQPQYQFRDYFIATCKQGYQLIEGNQVLHSFTAVCQDDGTWHRAMPRCKIKDCGQPRNLPNGDFRYTTTMGVNTYKARIQYYCHEPYYKMQTRAGSRESEQGVYTCTAQGIWKNEQKGEKIPRCLPVCGKPVNPVEQRQRIIGGQKAKMGNFPWQVFTNIHGRGGGALLGDRWILTAAHTLYPKEHEAQSNASLDVFLGHTNVEELMKLGNHPIRRVSVHPDYRQDESYNFEGDIALLELENSVTLGPNLLPICLPDNDTFYDLGLMGYVSGFGVMEEKIAHDLRFVRLPVANPQACENWLRGKNRMDVFSQNMFCAGHPSLKQDACQGDSGGVFAVRDPNTDRWVATGIVSWGIGCSRGYGFYTKVLNYVDWIKKEMEEED", "chain 2": "EPTMYGEILSPNYPQAYPSEVEKSWDIEVPEGYGIHLYFTHLDIELSENCAYDSVQIISGDTEEGRLCGQRSSNNPHSPIVEEFQVPYNKLQVIFKSDFSNEERFTGFAAYYVATDINECTDFVDVPCSHFCNNFIGGYFCSCPPEYFLHDDMKNCGVNCSGDVFTALIGEIASPNYPKPYPENSRCEYQIRLEKGFQVVVTLRREDFDVEAADSAGNCLDSLVFVAGDRQFGPYCGHGFPGPLNIETKSNALDIIFQTDLTGQKKGWKLRYHGDPMPCPKEDTPNSVWEPAKAKYVFRDVVQITCLDGFEVVEGRVGATSFYSTCQSNGKWSNSKLKCQPVDCGIPESIENGKVEDPESTLFGSVIRYTCEEPYYYMENGGGGEYHCAGNGSWVNEVLGPELPKCVPVCGVPREPFEEKQRIIGGSDADIKNFPWQVFFDNPWAGGALINEYWVLTAAHVVEGNREPTMYVGSTSVQTSRLAKSKMLTPEHVFIHPGWKLLEVPEGRTNFDNDIALVRLKDPVKMGPTVSPICLPGTSSDYNLMDGDLGLISGWGRTEKRDRAVRLKAARLPVAPLRKCKEVKVEKPTADAEAYVFTPNMICAGGEKGMDSCKGDSGGAFAVQDPNDKTKFYAAGLVSWGPQCGTYGLYTRVKNYVDWIMKTMQENSTPRED", "notes": "also called C1s-C1r-C1r-C1s proenzyme tetramer;2-C1s2"}}, "target": "T1, C1q derived from serum (human, UniProt P02745 23-245; P02746 28-253; P02747 29-245)", "T1 construct": "mature; Native C1q from serum, the comparator in SPR; The SPR paragraph says only 'serum C1q'; also called serC1q; serum C1q", "T1 sequence (P02745 23-245, chain 1 of 3)": "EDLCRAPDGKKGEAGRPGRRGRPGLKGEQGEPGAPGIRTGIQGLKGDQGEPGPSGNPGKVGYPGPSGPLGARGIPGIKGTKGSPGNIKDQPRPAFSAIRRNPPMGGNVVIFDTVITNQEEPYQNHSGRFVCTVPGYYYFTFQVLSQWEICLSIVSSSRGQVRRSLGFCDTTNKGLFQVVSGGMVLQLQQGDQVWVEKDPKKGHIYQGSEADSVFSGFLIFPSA", "T1 sequence (P02746 28-253, chain 2 of 3)": "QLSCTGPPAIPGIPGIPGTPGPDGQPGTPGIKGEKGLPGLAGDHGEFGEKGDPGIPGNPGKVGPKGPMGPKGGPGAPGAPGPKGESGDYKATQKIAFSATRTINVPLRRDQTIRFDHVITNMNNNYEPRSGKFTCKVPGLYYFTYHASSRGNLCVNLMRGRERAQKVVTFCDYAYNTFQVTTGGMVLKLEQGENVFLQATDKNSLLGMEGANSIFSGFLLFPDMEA", "T1 sequence (P02747 29-245, chain 3 of 3)": "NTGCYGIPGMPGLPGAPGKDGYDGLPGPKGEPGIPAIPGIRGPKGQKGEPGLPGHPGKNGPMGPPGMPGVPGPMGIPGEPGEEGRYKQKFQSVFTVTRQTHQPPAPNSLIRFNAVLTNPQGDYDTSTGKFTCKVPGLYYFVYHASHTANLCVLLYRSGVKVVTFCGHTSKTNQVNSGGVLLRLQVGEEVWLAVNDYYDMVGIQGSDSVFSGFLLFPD", "experiment": "SPR, C1q immobilized on CM5 chip, tetramer injected at 1-24 nM"}
{"binder": "B1", "values": [{"measurement": "Kd", "value": 3.12, "unit": "nM"}, {"measurement": "koff", "value": 0.00212, "unit": "s⁻¹"}, {"measurement": "kon", "value": 681000, "unit": "M⁻¹ s⁻¹"}]}
